Reference: the FLAb antibody collection

assay: melting temperature; conditions: Circular dichroism

Sequence	Tm
TRVDQTPRTATKETGESLTINCVLTGTSCSLYSTSWFRKNPGTTDWERISIGGRYVESVNKGAKSFSLRIKDLTVADSATYYCKAQKHCGYDWYDGAGTALTVK	72 °C
QVQLVESGGGLVQPGGSLRLSCAASGDTYGSYWMGWFRQAPGQGLEAVAAINRGGGYTVYADSVKGRFTISRDNSKNTLYLQMNSLRAEDTAVYYCAASGVLGGLHEDWFNYWGQGTLVTVSSHHHHHH	74 °C
DVQLQESGGGLVQPGGSLRLSCAASGFLFSDTYMTWARQAPGKGLEWLGGISKDGSGTLYEDSVEGRFTISRDNAKNTLYLQMNSLKSEDTALYYCSTGALLPTRPQGQGTQVTVSS	51.5 °C
EVQLVESGGGLVQPGGSLRLSCAASGSTFSSSSVGWYRQAPGKGLELVSAITSGGSTNTADSVKGRFTISRDNSKNTLYLQMNSLRAEDTAVYYCNVAGRNWVPISRYSPGPYWGQGTLVTVSS	63.3 °C
ARVDOTPRTATKETGESLTINCVLTDTSYGLSSTYWYRKNPGSSNKEQISISGRYVESVNKRTKSFSLRIKDLTVADSATYICNAYIVRGVYGIIAKDVYGDGTALTVK	64 °C
ARVEQTPRTATKETGESLTINCVLTGGSCSLYSTSWFRKNPGTTDWERISIGGRYVESVNKGAKSFSLRIKDLTVADSATYYCKAQSCMDSRTVVLDWYEGSGTVLTVK	76 °C
PRVEQTPRITTKETGESLTINCVLTGTSCNLWTATWFRKNPGTTDWERIRIGGRYVESVNKGAKSFSLRIKDLTVADSATYYCKVQFNLYCGEADWYDGAGTLLTVK	66 °C

same assay, conditions: DSF (SYPRO)

Sequence	Tm
QVQLQESGGGSVQAGGSLRLSCESSGMTFSVYNLGLRQAPGQECELSTITRDGSTDYADSMKGRFTISRDNAKNTMYLQMTSLKPDDTAVYYCAAGVGVVDCTEGQGTQVTVSS	51.8 °C
QVQLQESGGGSVQAGGSLKLSCDASTYTYGGKCMGWFRQAPGKEREFVAFIESDGRTSYADSVKGRFTISQDDAKNTVYLQMNSLKPEDTSMYYCKTAAGAFCGTRSYGFWGQGTQVTVSS	57.2 °C
QVKLEESGGGLVQAGGSLRLSCAASERTFSRYPVAWFRQAPGAEREFVAVISSTGTSTYYADSVKGRFTISRDNAKVTVYLQMNNLKREDTAVYFCAVNSQRTRLWDPNEYDYWGQGTQVTVSSGSEQKLISEEDLNHHHHHH	79.7 °C
QVQLQESGGGSVQAGGSLRLSCAVSGYTYSSYSIGWFRQAPGKEREGVAAINSGGSTNYAGSVEGRFTISQDNAKNTVSLLMNSLKPEDTATYYCAVGAFFTLRPTLYNYKGQGTQVTVSS	48.3 °C
QVQLQESGGGSVQAGGSLRLSCAASGWTYSTATMGWYRQAPGKERELVSSIFSDENTYYKDSVKGRFTISRDAAKNTVYLQMNSLKPEDTAMYYCYIRPTTSLANWRWGQGTQVTVSS	59.7 °C
QVKLEESGGGLVQAGGSLRLSCAASERTFSRYPVAWFRQAPGAEREFVAVISSTGTSTYYADSVKGRFTISRDNAKVTVYLQMNNLKREDTAVYFCAVNSQRKRLQDPNEYDYWGQGTQVTVSSGSEQKLISEEDLNHHHHHH	78.5 °C
QVQLQESGGGLVQPGGSLRLSCAASGFTISTTAMSWVRQAPGKGIEWVSTIFASGETTSYADFVQGRFITSRDNTKNTLYLQLNNLKTEDTAMYFCAAADDFGGLNNRYRGQGTQVTVSS	60.7 °C
QVKLEESGGGLVQAGGSLRLSCAASERTFSRYPVAWFRQAPGAEREFVAVISSTGTSKYYADSVKGRFTISRDNAKVTVYLQMNNLKREDTAVYFCAVNSQRTRLQDPNEYDYWGQGTQVTVSSGSEQKLISEEDLNHHHHHH	76.9 °C
EVQLQASGGGLVQPGGSLRLACVASGFTLEYSAIGWFRQAPGKEREAVSRIRNRDGRAIYADSVKDRFTISRDNAKSTVYLQMDSLKPEDTATYYCGRHIGVRSSWALPSEYDYWGQGTQYIYSS	60 °C
QVKLEESGGGLVQAGGSLRLSCAASERTFSRYPVAWFRQAPGAEREFVAVISSTGRSTYYADSVKGRFTISRDNAKVTVYLQMNNLKREDTAVYFCAVNSKRTRLQDPNEYDYWGQGTQVTVSSGSEQKLISEEDLNHHHHHH	81.4 °C
GPHMAQVQLVESGGRLVQAGDSLRLSCAASGRTFSTSAMAWFRQAPGREREFVAAITWTVGNTILGDSVKGRFTISRDRAKNTVDLQMDNLEPEDTAVYYCSARSRGYVLSVLRSVDSYDYWGQGTQVTVS	53.6 °C
QVQLQESGGGSVQAGGSLRLPCVASGYIYSPTKMGWFRQAPGKERELVSSITRDGRPYYSDSVKGRFTISQDNAKNTVYLQMNSLKPEDTAMYYCFADVRLSAVGGIKTYWDQGTQVTVSS	58.6 °C
QVKLEESGGGLVQAGGSLRLSCAASERTFSRYPVAWFRQAPGAEREFVAVISSTGTSTYYADSVKGRFTISRDNAKVTVYLQMNNLKREDTAVYFCAVNSQRTRLQNPNEYDYWGQGTQVTVSSGSEQKLISEEDLNHHHHHH	74.9 °C

same assay, conditions: Other

Sequence	Tm
QVQLVESGGGLVQAGGSLRLSCAASGYAYTYIYMGWFRQAPGKEREGVAAMDSGGGGTLYADSVKGRFTISRDKGKNTVYLQMDSLKPEDTATYYCAAGGYELRDRTYGQWGQGTQVTVSSAAALEHHHHHH	64.2 °C

same assay, conditions: nanoDSF

Sequence	Tm
TGGGLVQAGASLRLSCAASGRTFSTDHMGWFRQAPQKEREFVAAINAWSGLSIYYADSVKGRFTISRDNDKKTAYLQMNSLKPEDTAVYYCAAKEMGRGWVPQSSDDYDAWGQGTQV	66.6 °C
QVQLQESGGGSVQAGGSLKLSCDASTYTYGGKCMGWFRQAPGKEREFVAFIESDGRTSYADSVKGRFTISQDDAKNTVYLQMNSLKPEDTSMYYCKTAAGAFCGTRSYGFWGQGTQVTVSS	60.8 °C
QVQLQESGGGSVQAGGSLRLSCAVSGYTYSSYSIGWFRQAPGKEREGVAAINSGGSTNYAGSVEGRFTISQDNAKNTVSLLMNSLKPEDTATYYCAVGAFFTLRPTLYNYKGQGTQVTVSS	53.6 °C
QVQLQESGGGSVQAGGSLRLSCAASGWTYSTATMGWYRQAPGKERELVSSIFSDENTYYKDSVKGRFTISRDAAKNTVYLQMNSLKPEDTAMYYCYIRPTTSLANWRWGQGTQVTVSS	63.9 °C
TGGGLVQPGGSLRLSCAASGSISSINAMGWYRQAPGKQRELVAAITIRGNTVYGDSVKGRFTVSRDNAKNTVYLQMNSLKPEDTAVYYCNAKSTPSLYAAGYGVDYWGEGTLV	69.8 °C
QVQLQESGGGSVQAGGSLRLPCVASGYIYSPTKMGWFRQAPGKERELVSSITRDGRPYYSDSVKGRFTISQDNAKNTVYLQMNSLKPEDTAMYYCFADVRLSAVGGIKTYWDQGTQVTVSS	63.3 °C
